Tests used:
[1] = target: F protein of respiratory syncytial virus type A (RSV A) (human respiratory syncytial virus type A); assay: cell-based or functional assay
[2] = target: F protein of respiratory syncytial virus type B (RSV B) (human respiratory syncytial virus type B); assay: cell-based or functional assay
bovine serum albumin = target: T1, bovine serum albumin (bovine, UniProt P02769 25-607); assay: ELISA, BSA as negative control, detection with HRP-Anti-FLAG
T1 construct: Negative control; also called BSA
Description: recF (4 μg/mL) was coated on an ELISA plate and incubated overnight at 4° C. and then blocked with PBS+3% milk at 37° C. for 1 h. […] The plate was then washed four times with PBST (PBS+0.05% Tween 20) and then incubated with HRP-Anti-FLAG monoclonal antibody at 37° C. for 1 h. The ABTS was added for color development. Bovine serum albumin (BSA) was used as a negative control.

[3] = target: T2, recombinant human respiratory syncytial virus envelope protein F fused to the Fc fragment of antibody IgG1 … (human respiratory syncytial virus, UniProt P03420 26-524; P01857 99-330 = IgG part); assay: ELISA, recF (4 ug/mL) coated, detection with HRP-Anti-FLAG
T2 construct: also called recombinant F protein; RSV F protein
T2 sequence (P03420 26-524, tags or fused parts left off): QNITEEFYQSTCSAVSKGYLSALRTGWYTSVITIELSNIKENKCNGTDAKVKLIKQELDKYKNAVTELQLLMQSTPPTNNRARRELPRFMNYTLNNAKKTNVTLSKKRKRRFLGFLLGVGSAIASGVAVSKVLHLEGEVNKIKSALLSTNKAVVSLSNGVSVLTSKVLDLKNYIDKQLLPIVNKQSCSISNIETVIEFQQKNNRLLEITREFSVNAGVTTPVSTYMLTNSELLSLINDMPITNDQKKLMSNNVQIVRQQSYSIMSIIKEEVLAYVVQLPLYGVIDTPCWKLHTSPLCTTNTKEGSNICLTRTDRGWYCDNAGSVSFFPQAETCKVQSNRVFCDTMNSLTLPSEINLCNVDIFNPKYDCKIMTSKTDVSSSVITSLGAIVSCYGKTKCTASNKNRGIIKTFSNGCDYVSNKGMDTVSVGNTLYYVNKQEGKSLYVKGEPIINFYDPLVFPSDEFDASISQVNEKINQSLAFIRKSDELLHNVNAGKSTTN

T1 sequence (P02769 25-607 limits assumed): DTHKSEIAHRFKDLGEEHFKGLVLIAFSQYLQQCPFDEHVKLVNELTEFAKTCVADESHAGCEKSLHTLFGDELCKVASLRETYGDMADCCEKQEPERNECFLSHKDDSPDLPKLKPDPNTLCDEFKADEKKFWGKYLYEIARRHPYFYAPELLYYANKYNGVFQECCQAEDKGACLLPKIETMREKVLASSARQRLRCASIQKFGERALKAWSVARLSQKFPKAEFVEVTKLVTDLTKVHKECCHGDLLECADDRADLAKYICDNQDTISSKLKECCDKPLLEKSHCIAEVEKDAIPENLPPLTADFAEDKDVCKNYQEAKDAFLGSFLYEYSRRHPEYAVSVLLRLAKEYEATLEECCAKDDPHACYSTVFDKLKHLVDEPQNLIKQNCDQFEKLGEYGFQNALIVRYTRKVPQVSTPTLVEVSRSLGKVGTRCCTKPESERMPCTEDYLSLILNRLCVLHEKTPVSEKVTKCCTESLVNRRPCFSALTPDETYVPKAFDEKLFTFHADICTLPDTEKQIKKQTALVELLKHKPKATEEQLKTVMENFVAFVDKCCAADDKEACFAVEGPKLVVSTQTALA

B1: C-based single domain antibody BBT-VC001-1 (designed binder)
chain: PSVLCLPPKPKDTLVISRTPEVTCVVSGYNPYDFPIIKFKWYVDGVEVDNAKVKPRDENSYNTDSVVSKLTVLHQDWLNGKEYKCKVSAREGGSSGEWYYDLWGPIECTISKAK
notes: expressed in E. coli HB2151; also called C-type nanobody BBT-VC001-1; BBC-VC001-1; not shown: C-terminal 6x His tag and FLAG tag
- IC50 for inhibition of respiratory syncytial virus type A (infection of Hep-2 cells) [1]: 8.33 ng/mL
- IC50 for inhibition of respiratory syncytial virus type B (infection of Hep-2 cells) [2]: 8.42 ng/mL
- binding result (bovine serum albumin): no binding
- EC50 [3]: 28 nM

From US20250042977A1 (WUHAN BANKE BIOTECHNOLOGY, published 2025)
